The values below come from the RNAGym collection of RNA variant scans (doi:10.7554/elife.90254).

First the molecules themselves.
B1: LINE1-full (parent)
chain: UACGUAGGUGGUUUUCCCCUGAUAGUGCUAAGGGGGCCUGGAAGUUUGGACUGGGCAGAGCUCAACACAGCGUGGCAAAGUGGCUGUGGCUAGACUGCCUCUCUGGAUUCCUCGUCACUCAGCAGGGCAUCUCUGAGAGAAAUGCC

This series covers variants of B1. Description: self-cleavage, relative activity (ratio to wild type); higher = more cleavage; in vitro, sequencing; the parent is a self-cleaving ribozyme.
On to U73C U87A, for which the self-cleavage was 0.31. As for U73C U87C, the figure is 0.2; as for G74A U112C, 0.66; as for C71G U130C, 0.45.

Take A69G U108A: the self-cleavage turned out to be 0.07. G72U U132C: the self-cleavage came out at 1.11. As for A69U A141G, the figure is 0.07. In the case of G74U A94G it was 0.15; in that of C71U A124G, 0.28; in that of C71U A124U, 1. For G75A A129G, the self-cleavage worked out at 1.61. In the case of G75A A129U it was 1.13; in that of G72A U132C, 1.13; in that of U73A U87C, 0.06. In the case of G72A A124U it was 1.22; in that of G72A A124G, 0.52; in that of G72A A92U, 0.69.

Regarding G74A A141G, the self-cleavage is 0.97. In the case of U73G U102A it was 1.22; in that of C71U U81A, 0.88.

Take C71U U81C: the self-cleavage stood at 0.74. On to U73A U104C, for which the self-cleavage amounted to 1.53. As for U73A U104A, the figure is 1.09; as for U73A U108A, 1.42; as for U73A U102C, 0.97. In the case of A69G U109A it was 0.43. In the case of U73C G106A it was 1.7; in that of G74A U85C, 0.06. Regarding A69U U130A, the self-cleavage amounted to 0.09. With A69U U130C, the self-cleavage was 0.05. Consider G75A A94U, for which the self-cleavage was 0.35. In the case of G75A A94G it was 0.25; in that of G70U C90G, 0.02.

On to C71G A141G, for which the self-cleavage was 0.4. Regarding C71U U85A, the self-cleavage was 0.03. As for C71U U85C, the self-cleavage turned out to be 0.06. In the case of G74A U109C it was 0.7; in that of G70A A92G, 0.04; in that of U73A G82A, 1.74. In the case of U73A G82U it was 1.65. In the case of U73A G135A it was 1.66; in that of G72C A77G, 2.28. As to G72A U109A, the self-cleavage was found to be 1.37. In the case of G74A U100C it was 1.62; in that of U73G U115A, 1.12; in that of U73C A129C, 1.36. As for U73C A129G, the figure is 1.98. Turning to U73G U108A, the self-cleavage was 1.33. In the case of A69U U134C it was 0.09; in that of G70U A121G, 0.27; in that of G70A U73A, 0.09. As for G72A A94G, the figure is 0.33; as for U73C G144A, 1.77. As for U73C C110U, the figure is 2.11. Turning to C71A C133U, the self-cleavage came out at 0.08. As for U73A U115C, the figure is 1.9; as for U73C C90A, 0.06. In the case of U73A C98U it was 0.32. In the case of U73A A129G it was 1.67; in that of U73A A129U, 1.7. Consider A69U U100C, for which the self-cleavage stood at 0.08. As for C71U A141U, the figure is 1.46; as for C71U A141G, 0.68. C71U A138G: the self-cleavage was 1.21.

Consider U73G, for which the self-cleavage was 1.29. In the case of U73C, the self-cleavage was 1.72. As for U73A, the figure is 1.46; as for G74A U143G, 2.27.

Turning to G74A U143A, the self-cleavage stood at 1.72. With C71G A136G, the self-cleavage came out at 0.28. As for G70A A129G, the figure is 0.09.

For the variant U73C G97A, the self-cleavage came to 0.41.

With G70C U112C, the self-cleavage was found to be 0.14. On to C71G A124G, for which the self-cleavage is 0.25. In the case of U73A G126A it was 0.57; in that of A69U C146U, 0.08.

For C71U U100A, the self-cleavage amounted to 0.04. In the case of C71U U100C it was 1.31. In the case of G72C C111U it was 1.1; in that of U73C A107U, 2.22; in that of U73A U119A, 1.59. Consider U73A U119C, for which the self-cleavage was found to be 1.86. As for G70A U134C, the figure is 0.15. In the case of G72A A138G, the self-cleavage was 1.51. As for G74A U130C, the figure is 0.87; as for U73G A141G, 1.81; as for U73A U130A, 1.83. As for U73A U130C, the self-cleavage turned out to be 1.82.

As to G72U A77G, the self-cleavage amounted to 2.19. As for U73G U119C, the figure is 1.57. As for G72A A107G, the figure is 1.36. In the case of U73C G88U it was 0.13. As to U73C G127A, the self-cleavage was found to be 1.7.

Turning to G74A A94G, the self-cleavage was 0.15. As for G70U U81C, the figure is 0.3; as for G72A A121U, 1.52; as for G72A A121G, 1.02. As for U73C C101U, the figure is 1.01; as for U73C U81C, 1.47; as for G74A G89A, 0.03. As for G72A A129G, the figure is 1.67; as for A69G U134A, 0.37; as for A69G U134C, 0.44. As to G74A U81C, the self-cleavage was determined as 0.78. Take G72C U112C: the self-cleavage was 0.98.

Take U73C U109C: the self-cleavage amounted to 0.31. As for C71U U119C, the figure is 1.18; as for U73C U104A, 1.93. With U73C U104C, the self-cleavage was determined as 0.94. As to U73C U104G, the self-cleavage was 1.71. In the case of A69U U87A it was 0.04; in that of A69U U87C, 0.06. In the case of U73C A121U it was 1.89.

Turning to C71U C101A, the self-cleavage came out at 1.14. In the case of G72A G135U it was 1.2; in that of U73C C116U, 1.39; in that of U73C A140G, 1.63. In the case of U73C A140U it was 1.85. For G72A G105U, the self-cleavage was 1.29. As for C71A U73C, the figure is 0.31; as for G72A C120U, 1.31; as for U73C U100A, 1.81. As for U73C U100C, the figure is 1.99.

A69G U132C: the self-cleavage turned out to be 0.71. On to A69U G89A, for which the self-cleavage was found to be 0.04.

As for A69U G89U, the self-cleavage was 0.02.

Take A69G U112A: the self-cleavage came out at 0.74.

For A69G U112C, the self-cleavage was found to be 0.52. As for A69G U112G, the figure is 1.15. In the case of A69U U85A it was 0.5; in that of U73A G86A, 0.04; in that of A69U A121U, 0.05. In the case of A69U A121G, the self-cleavage was found to be 0.05. As for U73C G86A, the figure is 0.14; as for G70A A136G, 0.11. As for C71U U134A, the figure is 0.36; as for G74U A141G, 1.68; as for U73A A94U, 0.27. As for G72A A142G, the figure is 1.27; as for G72U A107C, 2.15. Consider C71A G93U, for which the self-cleavage was 0.03. As for U73C G74A, the figure is 2.38; as for U73A A79C, 2.16. As for U73A A79G, the figure is 1.2; as for A69U G93A, 0.03; as for C71A U96A, 0.09. In the case of G74U U143C, the self-cleavage stood at 1.48. As for U73G A136G, the figure is 1.84. As for G74A U115C, the figure is 1.46; as for U73G A77U, 1.14; as for U73C U85G, 0.21. As for U73C U85C, the figure is 0.08; as for G74A U87C, 0.08; as for G72U U130A, 1.07. Turning to U73A A124G, the self-cleavage is 1.03. In the case of U73A A124C it was 2.02; in that of G72U A94G, 0.46. In the case of A69U C101U it was 0.03; in that of A69U, 0.06; in that of U73A A77U, 0.69. As for U73A G88A, the figure is 0.07. On to A69U U73A, for which the self-cleavage came out at 0.04.

Turning to A69U U73G, the self-cleavage came to 0.31. As for A69U U73C, the figure is 0.05; as for U73A C123U, 1.3. As to U73C A79G, the self-cleavage came out at 1.79.

With C71A A124G, the self-cleavage was 0.13.
